From patent EP4782466A1, “FUSION PROTEIN FOR INACTIVATING CORONAVIRUS AND USE THEREOF” (priority 2023, dated 2025)

What was measured:
Assay in all cases: cell-based or functional assay
[1] = target: S protein of SARS-CoV-2 Omicron XBB (SARS-CoV-2 XBB)
[2] = target: S protein of SARS-CoV-2 Omicron BF.7 (SARS-CoV-2 BF.7)
[3] = target: S protein of SARS-CoV-2 Omicron BA.2.75 (SARS-CoV-2 BA.2.75)
[4] = target: S protein of SARS-CoV-2 Omicron BA.2.2 (SARS-CoV-2 BA.2.2)
[5] = target: S protein of SARS-CoV-2 Omicron BA.2.12.1 (SARS-CoV-2 BA.2.12.1)
[6] = target: S protein of SARS-CoV-2 Omicron BA.1 (SARS-CoV-2 BA.1)
[7] = target: S protein of SARS-CoV-2 Beta (B.1.351) (SARS-CoV-2 Beta (B.1.351))
[8] = target: S protein of SARS-CoV-2 Omicron BA.3 (SARS-CoV-2 BA.3)
[9] = target: S protein of SARS-CoV-2 Omicron BA.2.9 (SARS-CoV-2 BA.2.9)
[10] = target: S protein of SARS-CoV-2 Omicron BA.4.6 (SARS-CoV-2 BA.4.6)
[11] = target: S protein of SARS-CoV-2 Omicron BA.2 (SARS-CoV-2 BA.2)
[12] = target: S protein of SARS-CoV-2 Gamma (P.1) (SARS-CoV-2 Gamma (P.1))
[13] = target: S protein of SARS-CoV-2 Omicron BA.5 (SARS-CoV-2 BA.5)
[14] = target: S protein of SARS-CoV-2 Delta (B.1.617.2) (SARS-CoV-2 Delta (B.1.617.2))
[15] = target: S protein of SARS-CoV-2 Lambda (SARS-CoV-2 Lambda)
[16] = target: S protein of SARS-CoV-2 Omicron BQ.1 (SARS-CoV-2 BQ.1)
[17] = target: S protein of SARS-CoV-2 Alpha (B.1.1.7) (SARS-CoV-2 Alpha (B.1.1.7))

EK1 polypeptide
IC50, inhibition of pseudovirus infection (Caco-2, luciferase) [1]: 233 nM | IC50, inhibition of pseudovirus infection (Caco-2, luciferase) [2]: 584 nM | IC50, inhibition of pseudovirus infection (Caco-2, luciferase) [3]: 331 nM | IC50, inhibition of pseudovirus infection (Caco-2, luciferase) [4]: 162 nM | IC50, inhibition of pseudovirus infection (Caco-2, luciferase) [5]: 342 nM | IC50, inhibition of pseudovirus infection (Caco-2, luciferase) [6]: 70.5 nM | IC50, inhibition of pseudovirus infection (Caco-2, luciferase) [7]: 257 nM | IC50, inhibition of pseudovirus infection (Caco-2, luciferase) [8]: 136 nM | IC50, inhibition of pseudovirus infection (Caco-2, luciferase) [9]: 199 nM | IC50, inhibition of pseudovirus infection (Caco-2, luciferase) [10]: 473 nM | IC50, inhibition of pseudovirus infection (Caco-2, luciferase) [11]: 297 nM | IC50, inhibition of pseudovirus infection (Caco-2, luciferase) [12]: 277 nM | IC50, inhibition of pseudovirus infection (Caco-2, luciferase) [13]: 568 nM | IC50, inhibition of pseudovirus infection (Caco-2, luciferase) [14]: 150 nM | IC50, inhibition of pseudovirus infection (Caco-2, luciferase) [15]: 995 nM | IC50, inhibition of pseudovirus infection (Caco-2, luciferase) [16]: 136 nM | IC50, inhibition of pseudovirus infection (Caco-2, luciferase) [17]: 268 nM
